# Test results as given in patent US20060177894A1 (published 2006).
# Positions count from the first letter of the chain named. Names may count otherwise.
# B1: αR42C + hCGβ-S138C (ligand)
# chain 1: not shown
# chain 2: SKEPLRPRCRPINATLAVEKEGCPVCITVNTTICAGYCPTMTRVLQGVLPALPQVVCNYRDVRFESIRLPGCPRGVNPVVSYAVALSCQCALCRRSTTDCGGPKDHPLTCDDPRFQDSSSSKAPPPSLPSPSRLPGPCDTPILPQ
# notes: mature; disulfide αCys42-βCys138
# B2: αH90C + hCGβ-S138C (ligand)
# chain 1: not shown
# chain 2: B1 chain 2
# notes: mature; disulfide αCys90-βCys138
# B3: αS64C/hCG-βS138C (ligand)
# chain 1: not shown
# chain 2: B1 chain 2
# notes: mature; disulfide αCys64-βCys138; also called hCGβS138C+αS64C
# B4: αS92C + hCGβ-S138C (ligand)
# chain 1: not shown
# chain 2: B1 chain 2
# notes: mature; disulfide αCys92-βCys138
# B5: αS43C + hCGβ-S138C (ligand)
# chain 1: not shown
# chain 2: B1 chain 2
# notes: mature; disulfide αCys43-βCys138
# B6: αK45C + hCGβ-S138C (ligand)
# chain 1: not shown
# chain 2: B1 chain 2
# notes: mature; disulfide αCys45-βCys138
# B7: αK91C + hCGβ-S138C (ligand)
# chain 1: not shown
# chain 2: B1 chain 2
# notes: mature; disulfide αCys91-βCys138
# B8: αT46C + hCGβ-S138C (ligand)
# chain 1: not shown
# chain 2: B1 chain 2
# notes: mature; disulfide αCys46-βCys138
# B9: αN52C + hCGβ-S138C (ligand)
# chain 1: not shown
# chain 2: B1 chain 2
# notes: mature; disulfide αCys52-βCys138; lacks the αAsn52 oligosaccharide
# B10: αV49C + hCGβ-S138C (ligand)
# chain 1: not shown
# chain 2: B1 chain 2
# notes: mature; disulfide αCys49-βCys138
# B11: αK44C + hCGβ-S138C (ligand)
# chain 1: not shown
# chain 2: B1 chain 2
# notes: mature; disulfide αCys44-βCys138
# B12: αM47C + hCGβ-S138C (ligand)
# chain 1: not shown
# chain 2: B1 chain 2
# notes: mature; disulfide αCys47-βCys138
# B13: αL48C + hCGβ-S138C (ligand)
# chain 1: not shown
# chain 2: B1 chain 2
# notes: mature; disulfide αCys48-βCys138; also called hCGβS138C+αL48C
# B14: hCG-αCTδ116/135,138C + hCG β-subunit analog with cysteine in place of Asp99 (ligand)
# chain 1: not shown
# chain 2: B1 chain 2 with N77P, P78N, D99C, C138S
# notes: also called knob at β-subunit residue 99
# B15: hCG-αCTδ116/135,138C + hCG β-subunit analog with cysteine in place of Arg95 (ligand)
# chain 1: not shown
# chain 2: B1 chain 2 with N77P, P78N, R95C, C138S
# notes: also called knob at β-subunit residue 95
# B16: αH90C + β (ligand)
# chain 1: not shown
# chain 2: B1 chain 2 with C138S
# notes: mature; heterodimer from COS-7 medium; also called hCG-αH90C
# B17: hCG-αK44E, K45Q (ligand)
# alpha: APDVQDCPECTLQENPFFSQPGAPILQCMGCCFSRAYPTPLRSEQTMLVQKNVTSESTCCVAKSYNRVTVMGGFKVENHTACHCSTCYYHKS
# beta: B1 chain 2 with C138S
# modifications: Glycosylated heterodimer secreted by COS-7 cells; no engineered intersubunit disulfide.
# notes: heterodimer from COS-7 medium; also called αK44E, K45Q+hCGβ
# B18: αM47C + β (ligand)
# chain 1: not shown
# chain 2: B1 chain 2 with C138S
# notes: mature; heterodimer from COS-7 medium; also called hCG-αM47C
# B19: αY88C + β (ligand)
# chain 1: not shown
# chain 2: B1 chain 2 with C138S
# notes: mature; heterodimer from COS-7 medium; also called hCG-αY88C
# B20: αK45C + β (ligand)
# chain 1: not shown
# chain 2: B1 chain 2 with C138S
# notes: mature; heterodimer from COS-7 medium; also called hCG-αK45C
# B21: αQ50C + β (ligand)
# chain 1: not shown
# chain 2: B1 chain 2 with C138S
# notes: mature; heterodimer from COS-7 medium; also called hCG-αQ50C
# B22: αL48C + β (ligand)
# chain 1: not shown
# chain 2: B1 chain 2 with C138S
# notes: mature; heterodimer from COS-7 medium; also called hCG-αL48C
# B23: hCG-αK91E (ligand)
# chain 1: not shown
# chain 2: B1 chain 2 with C138S
# notes: mature; heterodimer from COS-7 medium; also called αK91E+hCGβ
# B24: αT86C + β (ligand)
# chain 1: not shown
# chain 2: B1 chain 2 with C138S
# notes: mature; heterodimer from COS-7 medium; also called hCG-αT86C
# B25: αT46C + β (ligand)
# chain 1: not shown
# chain 2: B1 chain 2 with C138S
# notes: mature; heterodimer from COS-7 medium; also called hCG-αT46C
# B26: hCG-αK91M (ligand)
# chain 1: not shown
# chain 2: B1 chain 2 with C138S
# notes: mature; heterodimer from COS-7 medium; also called αK91M+hCGβ
# B27: αK91C + β (ligand)
# chain 1: not shown
# chain 2: B1 chain 2 with C138S
# notes: mature; heterodimer from COS-7 medium; also called hCG-αK91C
# B28: αR42C + β (ligand)
# chain 1: not shown
# chain 2: B1 chain 2 with C138S
# notes: mature; heterodimer from COS-7 medium; also called hCG-αR42C
# B29: αQ50C + hCGβ-S138C (ligand)
# chain 1: not shown
# chain 2: B1 chain 2
# B30: αS43C + β (ligand)
# chain 1: not shown
# chain 2: B1 chain 2 with C138S
# notes: mature; heterodimer from COS-7 medium; also called hCG-αS43C
# B31: αK44C + β (ligand)
# chain 1: not shown
# chain 2: B1 chain 2 with C138S
# notes: mature; heterodimer from COS-7 medium; also called hCG-αK44C
# B32: αV49C + β (ligand)
# chain 1: not shown
# chain 2: B1 chain 2 with C138S
# notes: mature; heterodimer from COS-7 medium; also called hCG-αV49C
# B33: αS92C + β (ligand)
# chain 1: not shown
# chain 2: B1 chain 2 with C138S
# notes: mature; heterodimer from COS-7 medium; also called hCG-αS92C
# B34: hCG-αK44A (ligand)
# chain 1: not shown
# chain 2: B1 chain 2 with C138S
# notes: mature; heterodimer from COS-7 medium; also called αK44A+hCGβ
# B35: hCG-αM47A (ligand)
# chain 1: not shown
# chain 2: B1 chain 2 with C138S
# notes: mature; heterodimer from COS-7 medium
# B36: αV53C + β (ligand)
# chain 1: not shown
# chain 2: B1 chain 2 with C138S
# notes: mature; heterodimer from COS-7 medium; also called hCG-αV53C
# Target: T1, rat lutropin receptor (LHR) (rat, UniProt P16235 27-700)
# T1 construct: whole, on cells; also called LH receptor
# Experiment: inhibition of 125I-hCG binding to CHO cells with rat LHR; from IC50; acid-stable hCGβ-S138C analog
# T1 sequence (P16235 27-700): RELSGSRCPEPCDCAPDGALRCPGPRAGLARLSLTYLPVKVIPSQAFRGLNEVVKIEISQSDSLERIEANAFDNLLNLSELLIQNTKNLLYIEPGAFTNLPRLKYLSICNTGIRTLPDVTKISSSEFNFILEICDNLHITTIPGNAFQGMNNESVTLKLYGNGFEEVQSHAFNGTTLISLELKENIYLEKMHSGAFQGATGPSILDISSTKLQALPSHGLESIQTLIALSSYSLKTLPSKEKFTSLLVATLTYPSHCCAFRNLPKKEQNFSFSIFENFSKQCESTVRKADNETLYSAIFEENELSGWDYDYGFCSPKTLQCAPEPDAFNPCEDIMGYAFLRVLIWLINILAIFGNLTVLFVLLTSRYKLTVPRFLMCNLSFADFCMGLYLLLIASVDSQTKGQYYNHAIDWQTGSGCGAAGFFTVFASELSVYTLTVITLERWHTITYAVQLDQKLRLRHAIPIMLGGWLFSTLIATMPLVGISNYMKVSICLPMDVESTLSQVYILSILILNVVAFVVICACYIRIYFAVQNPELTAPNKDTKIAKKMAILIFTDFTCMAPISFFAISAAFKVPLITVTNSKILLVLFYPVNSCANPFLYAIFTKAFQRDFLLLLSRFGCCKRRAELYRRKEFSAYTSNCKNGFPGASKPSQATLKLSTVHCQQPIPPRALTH
row,Binder,Receptor-Binding potency (percent hCG)
1,B1,327 % of hCG
2,B2,3.1 % of hCG
3,B3,89 % of hCG
4,B4,28 % of hCG
5,B5,17 % of hCG
6,B6,223 % of hCG
7,B7,2.2 % of hCG
8,B8,50 % of hCG
9,B9,61 % of hCG
10,B10,71 % of hCG
11,B11,250 % of hCG
12,B12,4.1 % of hCG
13,B13,66 % of hCG

# Target: T1, rat lutropin receptor (LHR)
# Experiment: LHR binding and signaling assays
row,Binder,binding result
1,B14,no binding
2,B15,no binding

# Target: T1, rat lutropin receptor (LHR)
# Experiment: cell-based or functional assay
Binder,Signal Transduction potency (cAMP accumulation),"Signal transduction potency (cAMP accumulation), acid-stable analog"
B16,65 % of hCG,
B1,,332 % of hCG
B17,42 % of hCG,
B18,23 % of hCG,
B19,74 % of hCG,
B2,,1 % of hCG
B20,91 % of hCG,
B4,,13 % of hCG
B21,216 % of hCG,
B22,147 % of hCG,
B23,1.1 % of hCG,
B24,444 % of hCG,
B5,,43 % of hCG
B25,56 % of hCG,
B26,66 % of hCG,
B6,,168 % of hCG
B27,56 % of hCG,
B8,,52 % of hCG
B28,103 % of hCG,
B29,,308 % of hCG
B10,,99 % of hCG
B30,74 % of hCG,
B31,97 % of hCG,
B32,133 % of hCG,
B11,,191 % of hCG
B12,,2.4 % of hCG
B33,38 % of hCG,
B13,,99 % of hCG

# Target: T1, rat lutropin receptor (LHR)
# Experiment: inhibition of 125I-hCG binding to CHO cells with rat LHR; from IC50; native β-subunit analog
row,Binder,Receptor-Binding potency (percent hCG)
1,B34,84 % of hCG
2,B16,30 % of hCG
3,B17,58 % of hCG
4,B18,8.7 % of hCG
5,B19,141 % of hCG
6,B20,93 % of hCG
7,B21,81 % of hCG
8,B22,60 % of hCG
9,B23,4.3 % of hCG
10,B24,95 % of hCG
11,B35,83 % of hCG
12,B25,38 % of hCG
13,B26,68 % of hCG
14,B27,41 % of hCG
15,B28,113 % of hCG
16,B30,35 % of hCG
17,B31,66 % of hCG
18,B32,70 % of hCG
19,B33,100 % of hCG
20,B36,149 % of hCG

# Target: T1, rat lutropin receptor (LHR)
# Experiment: LHR binding assay
row,Binder,fold lower affinity than hCG [fold]
1,B23,~10
